Test results: patent US20200347143A1 (GLENMARK PHARMACEUTICALS S A, published 2020)
Each block holds one binder with its values, some of them ahead of it.

Key:
[1] = molecular target: T1, recombinant human OX40-his protein (human, UniProt P43489 29-214); assay: SPR, antibody captured on Protein A, OX40-his injected
T1 construct: Secreted via the native signal peptide, which lies within residues 1-214; also called Human OX40R-His; histidine tagged human OX40 receptor extracellular domain
T1 sequence: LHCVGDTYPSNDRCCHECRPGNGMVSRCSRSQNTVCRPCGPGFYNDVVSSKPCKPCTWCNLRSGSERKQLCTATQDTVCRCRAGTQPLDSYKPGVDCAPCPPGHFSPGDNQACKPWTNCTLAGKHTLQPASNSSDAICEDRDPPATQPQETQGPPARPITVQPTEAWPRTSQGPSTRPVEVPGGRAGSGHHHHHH
Protocol: (§1) Measurements were performed on CM5 sensor chips (Biacore 2000, GE Healthcare Europe GmbH, Cat. No: BR-1000-14) individually coupled with Protein A (Sigma, Buchs, Switzerland, Cat. No: P7837) using a commercial amine coupling kit (GE Healthcare Europe GmbH, Cat. No: BR-1000-50). 200-600 RUs of humanized antibody were captured. Dilution series of OX40-his were injected at a flow rate of 10 μl/min in HBS-EP buffer (GE Healthcare Europe GmbH, Cat. No: BR1001-88). After each binding event, the surface was regenerated with 10 μl of glycine buffer pH 1.5. Experimental data were processed using a 1:1 Langmuir model with local Rmax. The dissociation time was about 7 min. Measurements were performed in duplicates or triplicates and included zero-concentration samples for referencing. Both Chit and residual values were used to evaluate the quality of a fit between the experimental data and individual binding models.
Finally, Surface Plasmon Resonance analyses were applied to control antibody variant affinities as described earlier.

[2] = molecular target: rat OX40-Fc (rat); assay: ELISA on coated rat OX40-Fc
Protocol: (§2) These constructs were expressed in HEK293-EBNA1 cells and purified using protein A. Then, human and rat OX40-Fc were tested in ELISA and Biacore to determine antibody cross-reactivity. For the ELISA, 96 well-microtiter plates (Costar USA, distributor VWR AG, Nyon, Switzerland) were coated with 100 μl of recombinant human or rat OX40-Fc at 2 μg/ml in PBS. Plates were incubated overnight at 4° C. and were then blocked with PBS 2% BSA (Bovine Serum Albumine, PAA Laboratories, Pasching, Austria) at room temperature (RT) for one hour. The blocking solution was removed and the purified antibodies were added at 10 μg/ml in PBS 2% BSA. The plates were incubated at RT for 1 hour, then washed 5 times with PBS 0.01% Tween-20 (Sigma-Aldrich Chemie GmbH, Buchs, Switzerland). […] Plates were incubated for 1 hour at RT, washed 5 times with PBS 0.01% Tween-20 and the TMB substrate (Bio-rad Laboratories AG, Reinach, Switzerland) was added to the plates and the reaction stopped after 5 minutes by adding H₂SO₄. Absorbance was then read at 450 nm by a microplate reader (Biotek, USA; distributor: WITTEC AG, Littau, Switzerland). Biacore experiments were specifically conducted with Hexa-hzG3V9 and Hexa-hz1D10v1 which are dAb-Fc fusion proteins. […] Binding of human and cyno OX40-Fc molecules was determined by successively injecting these proteins on the 4 flow-paths (flow-path 1 and 3 being used as references) at a concentration of 200 nM and a flow rate of 30 uL/min for 240 seconds. Regeneration between the two injections was done using 3M MgCl2, at 30 uL/min for 60 seconds. Using these two approaches, human/rat OX40 binding was assessed (table 16).

[3] = molecular target: T2, human OX40-Fc (human); assay: ELISA on coated human OX40-Fc, antibody 10 µg/ml
T2 construct: also called recombinant human OX40-Fc; human OX40 (HHHH)
Protocol: as §2

[4] = molecular target: T3, recombinant DR3 molecule (R&D) (UniProt Q93038 25-199, limits assumed); assay: direct ELISA on coated recombinant DR3, detection streptavidin-HRP, absorbance 450 nm [panel DR3]
T3 sequence (looked up): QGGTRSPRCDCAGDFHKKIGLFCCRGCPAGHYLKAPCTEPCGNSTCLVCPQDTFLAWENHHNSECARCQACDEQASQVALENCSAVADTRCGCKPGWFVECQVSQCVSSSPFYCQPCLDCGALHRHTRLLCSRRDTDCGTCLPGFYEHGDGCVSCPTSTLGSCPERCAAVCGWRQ
Protocol: (§3) FIG. 13. A dose-response of various antibodies was incubated on various receptors, members of Tumor Necrosis Factor Receptor family, then detected with Streptavidin coupled with Horseradish Peroxidase enzyme. […] Each data point is the mean of duplicate values except for control curves that were performed in simplicate.
(§4) The experiment was conducted following the same protocol than previously described. […] These molecules were all coated at 2 μg/ml in PBS overnight at 4° C.

[5] = molecular target: T4, recombinant DR6 molecule (R&D) (UniProt O75509 42-349, limits assumed); assay: direct ELISA on coated recombinant DR6, detection streptavidin-HRP, absorbance 450 nm [panel DR6]
T4 sequence (looked up): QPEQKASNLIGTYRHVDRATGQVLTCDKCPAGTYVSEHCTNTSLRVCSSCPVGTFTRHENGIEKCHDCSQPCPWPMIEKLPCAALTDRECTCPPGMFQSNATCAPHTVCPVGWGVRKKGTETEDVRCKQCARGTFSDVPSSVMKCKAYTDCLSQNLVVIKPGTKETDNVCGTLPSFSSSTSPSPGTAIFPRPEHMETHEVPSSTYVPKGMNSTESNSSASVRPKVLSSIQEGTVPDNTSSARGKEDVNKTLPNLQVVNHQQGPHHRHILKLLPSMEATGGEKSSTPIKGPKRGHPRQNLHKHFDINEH
Protocol: as §3, §4

[6] = molecular target: recombinant CD40 molecule (R&D) (UniProt P25942 21-193); assay: direct ELISA on coated recombinant CD40, detection streptavidin-HRP, absorbance 450 nm [panel CD40]
Protocol: as §3, §4

[7] = molecular target: T5, recombinant GITR molecule (R&D) (UniProt Q9Y5U5 26-161); assay: direct ELISA on coated recombinant GITR, detection streptavidin-HRP, absorbance 450 nm [panel GITR]
T5 sequence (looked up): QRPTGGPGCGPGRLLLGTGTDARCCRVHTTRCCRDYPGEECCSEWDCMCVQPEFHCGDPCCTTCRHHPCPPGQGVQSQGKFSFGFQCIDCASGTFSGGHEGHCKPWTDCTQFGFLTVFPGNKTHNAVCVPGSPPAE
Protocol: as §3, §4

[8] = molecular target: T6, human OX40 on cells (human, UniProt P43489 29-277); assay: flow cytometry on JURKAT-NFkB-OX40 cells, detection anti-human Fc PE, geometric mean of fluorescence intensity
T6 construct: whole, on cells; also called OX40 on HPB-ALL cells
T6 sequence (looked up): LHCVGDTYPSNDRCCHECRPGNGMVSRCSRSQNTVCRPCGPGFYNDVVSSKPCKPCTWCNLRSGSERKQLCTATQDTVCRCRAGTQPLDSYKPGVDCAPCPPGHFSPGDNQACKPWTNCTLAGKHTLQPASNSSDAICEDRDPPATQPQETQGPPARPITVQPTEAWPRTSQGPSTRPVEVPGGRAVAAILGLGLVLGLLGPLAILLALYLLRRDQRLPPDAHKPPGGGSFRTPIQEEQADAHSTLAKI

[9] = molecular target: T6, human OX40 on cells; assay: cell-based or functional assay
[10] = molecular target: T6, human OX40 on cells; assay: cell-based or functional assay; remark: listed apart in the source
[11] = molecular target: T6, human OX40 on cells; assay: cell-based or functional assay; remark: listed apart in the source
[12] = molecular target: T6, human OX40 on cells; assay: flow cytometry on HPB-ALL cells, 10 µg/ml antibody
Protocol: HPB-ALL cells (DSMZ, Braunschweig, Germany, Cat. No: ACC483) were used as a human OX40 positive cell line for FACS staining. HPB-ALL were maintained in RPMI 1640 supplemented with 10% FCS and 100 U/ml Penicillin and 100 μg/ml streptomycin. 4×10e5 HPB-ALL cells in FACS buffer (PBS supplemented with 1% BSA and 0.1% sodium azide) were incubated for 45 min on ice with the anti-OX40 antibody of interest kept at a concentration of 10 μg/ml An irrelevant human IgG1 was used as an isotype control; the cells were incubated with a 1/200 dilution of anti-Human Fc-PE (EBioscience, Vienna, Austria) for 45 min on ice. Cells were then washed again and resuspended in 200 μl FACS buffer. The relative mean fluorescence of each sample was measured on a FACSCalibur instrument (BD Biosciences, Allschwil, Switzerland).
A first set of 16 humanized antibodies of human gamma one isotype were prepared. These first humanized candidates were assessed for transient expression in HEK293E cells and binding to HB-ALL cell by flow cytometry (Table 7).

[13] = molecular target: T1, recombinant human OX40-his protein; assay: SPR, antibody captured on Protein A, OX40-his injected; remark: listed apart in the source
Protocol: as §1
Humanized antibody candidates were then assayed for their binding affinity by SPR and Fab thermal stability by DSC.

[14] = molecular target: T1, recombinant human OX40-his protein; assay: SPR (BIAcore 2000), antibody captured on Protein A, OX40-his injected
Protocol: SPR analysis was used to measure the association and dissociation rate constants for the binding kinetics of the anti-OX40 antibodies. The binding kinetics were measured on a BIAcore 2000 (BIAcore-GE Healthcare Europe GmbH, Glattbrugg, Switzerland) at room temperature and analyzed with the BiaEvaluation software (v4.1, GE Healthcare Europe GmbH).
as §1

recombinant CD40 molecule (R&D), sequence (P25942 21-193 limits assumed): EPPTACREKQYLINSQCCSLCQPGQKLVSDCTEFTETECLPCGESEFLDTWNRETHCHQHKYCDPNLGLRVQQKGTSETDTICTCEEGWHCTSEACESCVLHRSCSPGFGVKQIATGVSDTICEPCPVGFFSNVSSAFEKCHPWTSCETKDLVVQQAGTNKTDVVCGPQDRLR
rat OX40-Fc (rat), sequence (chain, as listed by the source limits assumed): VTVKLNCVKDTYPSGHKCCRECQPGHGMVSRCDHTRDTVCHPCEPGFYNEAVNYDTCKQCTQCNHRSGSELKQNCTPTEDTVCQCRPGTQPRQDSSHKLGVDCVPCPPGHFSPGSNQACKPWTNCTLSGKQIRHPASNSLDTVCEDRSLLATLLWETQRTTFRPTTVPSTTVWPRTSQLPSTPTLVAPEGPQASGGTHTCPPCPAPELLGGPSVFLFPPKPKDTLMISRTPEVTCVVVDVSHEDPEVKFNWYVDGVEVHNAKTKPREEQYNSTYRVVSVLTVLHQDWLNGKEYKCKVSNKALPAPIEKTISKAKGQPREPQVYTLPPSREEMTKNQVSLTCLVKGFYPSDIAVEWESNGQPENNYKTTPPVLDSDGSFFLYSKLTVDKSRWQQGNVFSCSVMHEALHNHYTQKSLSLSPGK

B2: Humanized 7H11-VH2 N58K-D54T (antibody, human IgG1, kappa, V domains shown)
VH: QVQLVQSGAEVKKPGASVKVSCKASGYTFTRYYMHWVRQAPGQGLEWMGWIYPGTGSTKYAQKFQGRVTMTRDTSISTAYMELSRLRSDDTAVYYCAREYGNYDYWGQGTLVTVSS
VL: DIVMTQSPDSLAVSLGERATINCKSSQSLLNSGNQKNYLAWYQQKPGQPPKLLIYGASTRESGVPDRFSGSGSGTDFTLTISSLQAEDVAVYYCQNDHSYPYTFGQGTKLEIKR
notes: human IgG1, kappa; also called 7H11 VH D54T
Kd [1]: 32 nM

B4: recombinant human OX40L-Fc protein (Fc fusion, not shown: a dimerising Fc or GST; small tags and cut ends)
chain: QVSHRYPRIQSIKVQFTEYKKEKGFILTSQKEDEIMKVQNNSVIINCDGFYLISLKGYFSQEVNISLHYQKDEEPLFQLKKVRSVNSLMVASLTYKDKVYLNVTTDNTSLDDFHVNGGELILIHQNPGEFCVL
donors reaching a 1.2 fold induction of CD4+CD25+ cells compared to SEB only [9]: 67% | Mean (fold increase proliferation vs control), MLR assay [10]: 1.54 fold | % donor responder (>2), SEB assay, IL-2 release [11]: 83% | Mean, normalized IL-2 release, SEB assay [11]: 4.26

More lines, now with the values ahead:

Kd [1]: 49 nM
B1: Humanized 7H11-VH2 N58K-D54S (antibody, human IgG1, kappa, V domains shown)
VH: QVQLVQSGAEVKKPGASVKVSCKASGYTFTRYYMHWVRQAPGQGLEWMGWIYPGSGSTKYAQKFQGRVTMTRDTSISTAYMELSRLRSDDTAVYYCAREYGNYDYWGQGTLVTVSS
VL: DIVMTQSPDSLAVSLGERATINCKSSQSLLNSGNQKNYLAWYQQKPGQPPKLLIYGASTRESGVPDRFSGSGSGTDFTLTISSLQAEDVAVYYCQNDHSYPYTFGQGTKLEIKR
notes: human IgG1, kappa; also called 7H11 VH D54S

binding result [2]: no binding (tested: 10 µg/ml) | binding result [3]: binds | binding result [4]: no binding (tested: 10 µg/ml) | binding result [5]: no binding (tested: 10 µg/ml) | binding result [6]: no binding (tested: 10 µg/ml) | binding result [7]: no binding (tested: 10 µg/ml) | EC50 (read off the curve) [8]: ~0.2 µg/mL
B3: 2H6 IgG1 (antibody)
heavy: not shown
light: DIQLTQSPSSLSASVGDRVTITCRASESVDNYGISFMNWFQQKPGKAPKLLIYAASNQKSGVPSRFSGSGSGTDFTLTISSLQPEDFATYFCQQSKEVPLTFGQGTKVEIKRTVAAPSVFIFPPSDEQLKSGTASVVCLLNNFYPREAKVQWKVDNALQSGNSQESVTEQDSKDSTYSLSSTLTLSKADYEKHKVYACEVTHQGLSSPVTKSFNRGEC

MFI [12]: 132 | Kd [13]: 50 nM | Kd [14]: 50 nM | koff [14]: 0.00066 s⁻¹ | kon [14]: 11600 M⁻¹ s⁻¹
B5: Chimeric 7H11 IgG1 (antibody, V domains shown)
VH: QVQLQQSGPELVKPGASVKMSCKASGYTFTRYYIHWMNQRPGQGLEWIGWIYPGDGSTKYNEKFKGKTTLTADTSSSTAYMLLSSLTSEDSAIYFCAREYGNYDYWGQGTTVTVSS
VL: DIVMTQSPSSLSVSAGEKVTMSCKSSQSLLNSGNQKNYLAWYQQKPGQPPKLLIYGASTRESGVPDRFTGSGSGTDFTLTISSVQAEDLAVYYCQNDHSYPYTFGGGTKLEIK
notes: Mouse variable domains on human IgG1 heavy constant domains and human kappa constant domain; also called 7H11 (chimeric); chimeric 7H11 antibody
